According to the Human Domainome abundance scans (Beltran et al. 2025):
± gives the uncertainty stated by the source.

B1: Gamma-crystallin C, residues 4 to 79; numbered along this chain, P07315 (parent)
chain: ITFYEDRAFQGRSYETTTDCPNLQPYFSRCNSIRVESGCWMLYERPNYQGQQYLLRRGEYPDYQQWMGLSDSIRSC

Variants of: B1
Test: abundance fitness (aPCA) (normalised: wild type 0, dead -1); higher = more abundant; growth selection in yeast, the domain comes from the species named
Details: Homo sapiens

Variant | abundance fitness
R74I | 0.02 ± 0.076
R74D | 0.104 ± 0.15
R74T | 0.12 ± 0.082
R74W | 0.119 ± 0.059
Q64K | -0.042 ± 0.12
Q64L | -0.081 ± 0.06
S37E | -0.12 ± 0.097
S37I | 0.072 ± 0.27
S37V | 0.066 ± 0.13
S37W | -0.113 ± 0.13
S37R | -0.004 ± 0.078
S37H | -0.142 ± 0.25
S37L | -0.301 ± 0.13
S13R | 0.03 ± 0.066
S13D | -0.122 ± 0.14
L23I | -0.059 ± 0.31
L23T | -0.081 ± 0.12
L23Q | -0.959 ± 0.34
L23V | 0.005 ± 0.064
L23M | 0.027 ± 0.18
L23R | -1.01 ± 0.23
L69W | 0.098 ± 0.081
L69I | -0.23 ± 0.26
L69R | -0.021 ± 0.048

Variant | abundance fitness
L69H | -0.045 ± 0.099
L69G | -0.028 ± 0.041
F3L | -0.036 ± 0.078
F3S | -1.01 ± 0.27
F3Q | -0.94 ± 0.23
P61E | -0.094 ± 0.22
P61Q | -0.051 ± 0.086
N31A | -0.576 ± 0.42
Q49F | -0.298 ± 0.23
Q49M | -0.115 ± 0.11
Q49Y | -0.013 ± 0.3
P25T | 0.199 ± 0.11
P25M | 0.005 ± 0.11
P25E | 0.086 ± 0.12
P25K | 0.008 ± 0.11
P25Q | -0.05 ± 0.13
F27I | -0.144 ± 0.28
F27C | -0.203 ± 0.17
F27L | -0.09 ± 0.08
F27S | -0.109 ± 0.076
C76Q | -0.592 ± 0.15
C76I | 0.074 ± 0.083
C76F | -0.539 ± 0.086
C76W | -0.545 ± 0.22

Variant | abundance fitness
C76Y | -0.719 ± 0.13
C76T | -0.002 ± 0.15
M67H | -0.01 ± 0.25
M67C | -0.173 ± 0.12
M67W | 0.044 ± 0.087
M67Y | -0.067 ± 0.096
M67F | -0.091 ± 0.093
M67G | -0.113 ± 0.06
M67P | -0.057 ± 0.069
M67Q | -0.042 ± 0.15
M67R | -0.005 ± 0.072
M67L | -0.011 ± 0.053
M41P | -0.981 ± 0.32
M41L | -0.056 ± 0.08
M41N | -0.132 ± 0.42
M41V | -0.115 ± 0.087
M41K | -0.056 ± 0.14
M41Q | 0.046 ± 0.11
T2I | 0.093 ± 0.25
T2K | -0.039 ± 0.12
T2F | 0.101 ± 0.32
T2Q | -0.114 ± 0.16
G11E | -0.321 ± 0.21
G11N | 0.162 ± 0.49

Variant | abundance fitness
G11L | -0.41 ± 0.072
G11H | -0.49 ± 0.24
L54M | -0.044 ± 0.089
L54S | -0.003 ± 0.088
L54E | -0.004 ± 0.15
L54Q | 0.096 ± 0.26
L54Y | -0.393 ± 0.25
L54A | -0.016 ± 0.08
L54W | -0.073 ± 0.13
I73H | -0.693 ± 0.29
I73V | 0.085 ± 0.089
I73F | -0.083 ± 0.12
I73Q | -0.798 ± 0.26
F9C | 0.12 ± 0.13
Y4G | -0.863 ± 0.14
Y4E | -0.848 ± 0.27
Y4N | -0.631 ± 0.28
Y4H | -0.364 ± 0.13
Y4S | -0.725 ± 0.12
G58E | -0.272 ± 0.15
Y26N | 0.052 ± 0.38
Y26V | 0.046 ± 0.088
Y26A | 0.064 ± 0.053
Y26D | -0.179 ± 0.23

Variant | abundance fitness
Y26I | 0.237 ± 0.19
Y26L | 0.037 ± 0.067
T18E | -0.02 ± 0.1
T18N | 0.049 ± 0.12
T18R | -0.168 ± 0.087
T18F | -0.014 ± 0.24
T18Q | -0.333 ± 0.15
E36M | 0.019 ± 0.14
E36L | -0.078 ± 0.12
E36Q | -0.081 ± 0.1
E36K | -0.074 ± 0.48
E59D | 0.025 ± 0.2
E59F | -0.039 ± 0.11
E59M | -0.029 ± 0.12
G68D | -0.042 ± 0.13
G68K | 0.028 ± 0.088
G68T | 0.068 ± 0.076
G68A | 0.003 ± 0.073
G68V | 0.007 ± 0.065
Q51E | -0.023 ± 0.099
Q51P | -0.219 ± 0.087
Q51D | -0.056 ± 0.13
Q51W | -0.149 ± 0.13
Q51V | -0.016 ± 0.1

Variant | abundance fitness
I33M | 0.191 ± 0.14
I33W | -0.776 ± 0.34
I33T | -0.494 ± 0.15
I33K | -0.835 ± 0.25
I33F | -0.057 ± 0.14
I33E | -0.676 ± 0.37
I33C | 0.074 ± 0.13
N47M | -0.044 ± 0.12
N47T | -0.1 ± 0.11
N47I | -0.308 ± 0.28
N47Q | -0.179 ± 0.078
N47F | -0.101 ± 0.33
R34V | -0.039 ± 0.11
Y48S | -0.324 ± 0.12
Y48T | -0.626 ± 0.41
Y48A | -0.329 ± 0.11
Y48R | -0.508 ± 0.049
Y48F | -0.584 ± 0.31
E15V | -0.073 ± 0.11
E15W | 0.069 ± 0.14
E15S | 0.005 ± 0.081
E15H | 0.066 ± 0.26
S70A | 0.02 ± 0.05
S70Q | -0.077 ± 0.15

Variant | abundance fitness
S70I | 0.09 ± 0.11
S70G | -0.007 ± 0.055
S70P | 0.082 ± 0.084
S70K | -0.114 ± 0.17
Y43C | 0.111 ± 0.12
Y43W | -0.139 ± 0.12
R12I | 0.017 ± 0.077
R29Y | 0.024 ± 0.16
L42Y | -0.728 ± 0.47
L42T | -0.095 ± 0.16
L42A | -0.102 ± 0.12
L42V | -0.011 ± 0.083
L42N | -0.967 ± 0.46
C39T | -0.012 ± 0.1
C39R | -0.071 ± 0.07
C39A | -0.051 ± 0.12
C39P | 0.092 ± 0.13
C39Y | -0.014 ± 0.092
C39W | 0.031 ± 0.08
C39N | -0.12 ± 0.26
C39M | -0.027 ± 0.27
C39F | -0.036 ± 0.11
C39V | 0.011 ± 0.072
